According to US20250136720A1 (Boehringer Ingelheim, published 2025):

Legend:
[1] = molecular target: T1, Human CD137 on Jurkat cells (human, UniProt Q07011 24-255); assay: cell-based or functional assay; design: IC90; Jurkat-CD137 NFkB-luciferase, HT1080-FAP co-culture / EC90; Jurkat-CD137 NFkB-luciferase, HT1080-FAP co-culture: unit not given beside the values
[2] = molecular target: T1, Human CD137 on Jurkat cells; assay: cell-based or functional assay
[3] = molecular target: T1, Human CD137 on Jurkat cells; assay: flow cytometry, Jurkat cells;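 also: binding of antibody-containing supernatants to NF-kB-Luc2/4-1BB Jurkat cells, detected by flow cytometry with a PE-labelled anti-human IgG-Fc secondary antibody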

B1: CD137 #2 (B21.V16) + FAP #2 (A11 VK3/VH3) (bispecific antibody, human IgG1, kappa, L234A L235A)
heavy: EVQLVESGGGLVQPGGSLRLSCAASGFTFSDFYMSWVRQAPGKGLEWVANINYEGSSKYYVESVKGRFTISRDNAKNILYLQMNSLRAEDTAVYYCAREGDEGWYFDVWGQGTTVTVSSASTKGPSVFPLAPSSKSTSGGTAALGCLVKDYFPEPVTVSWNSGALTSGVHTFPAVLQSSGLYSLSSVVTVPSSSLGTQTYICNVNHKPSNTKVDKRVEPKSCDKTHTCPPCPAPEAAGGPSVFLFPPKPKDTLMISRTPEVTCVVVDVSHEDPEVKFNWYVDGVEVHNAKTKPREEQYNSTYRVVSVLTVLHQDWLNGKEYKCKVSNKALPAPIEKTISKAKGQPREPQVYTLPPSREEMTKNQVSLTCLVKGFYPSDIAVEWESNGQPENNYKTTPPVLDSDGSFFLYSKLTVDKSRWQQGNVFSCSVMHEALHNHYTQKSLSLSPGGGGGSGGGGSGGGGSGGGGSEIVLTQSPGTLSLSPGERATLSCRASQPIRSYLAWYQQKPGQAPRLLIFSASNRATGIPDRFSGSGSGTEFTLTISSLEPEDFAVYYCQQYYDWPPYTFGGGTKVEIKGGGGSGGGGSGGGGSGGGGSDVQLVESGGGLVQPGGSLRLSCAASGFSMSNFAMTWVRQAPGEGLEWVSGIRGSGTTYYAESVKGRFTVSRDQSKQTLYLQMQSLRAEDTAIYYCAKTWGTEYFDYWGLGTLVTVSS
light: DIQMTQSPSSLSASVGDRVTITCKASQDISSAVAWYQQKPGKAPKLLIYSASSRYTGVPSRFSGSGSGTDFTLTISSLQPEDFAVYYCQQHYSNPWTFGQGTKLEIKRTVAAPSVFIFPPSDEQLKSGTASVVCLLNNFYPREAKVQWKVDNALQSGNSQESVTEQDSKDSTYSLSSTLTLSKADYEKHKVYACEVTHQGLSSPVTKSFNRGEC
In the case of B1, the “EC90; Jurkat-CD137 NFkB-luciferase, HT1080-FAP co-culture” value [1] is reported as 3.14, the “IC90; Jurkat-CD137 NFkB-luciferase, HT1080-FAP co-culture” value [1] is reported as 127 and the “Total AUC; Jurkat-CD137 NFkB-luciferase, HT1080-FAP co-culture” value (“Total AUC; Jurkat-CD137 NFkB-luciferase” for short) [1] is reported as 3.3e+06. The “Average EC50; Jurkat-CD137 NFkB-luciferase, HT1080-FAP co-culture” value (from here on “Average EC50”) [2] was 0.165 nM, the “Average EC90; Jurkat-CD137 NFkB-luciferase, HT1080-FAP co-culture” value (“Average EC90” for short) [2] was 1.47 nM and the “Average IC50; Jurkat-CD137 NFkB-luciferase, HT1080-FAP co-culture” value (“Average IC50” for short) [2] was 847 nM. For the same binder, the “Average IC90; Jurkat-CD137 NFkB-luciferase, HT1080-FAP co-culture” value (“Average IC90” for short) [2] was 87.8 nM, the “Ratio IC50/EC50; Jurkat-CD137 NFkB-luciferase, HT1080-FAP co-culture” value (“Ratio IC50/EC50” for short) [2] was 5130 and the “Ratio IC90/EC90; Jurkat-CD137 NFkB-luciferase, HT1080-FAP co-culture” value (“Ratio IC90/EC90” below) [2] was 59.7.

B2: CD137 #8 (A49.V43) + FAP #3 (A11 VK7/VH1) (bispecific antibody, human IgG1, kappa, L234A L235A)
heavy: not shown
light: EIVMTQSPLSLPVTPGEPASISCRSSQSLLYSNGYNHLDWYLQKPGQSPQLLIYLGSNRASGVPDRFSGSGSGTDFTLKISRVEAEDVGVYYCMQALQTPPTFGQGTKLEIKRTVAAPSVFIFPPSDEQLKSGTASVVCLLNNFYPREAKVQWKVDNALQSGNSQESVTEQDSKDSTYSLSSTLTLSKADYEKHKVYACEVTHQGLSSPVTKSFNRGEC
With B2 the “EC90; Jurkat-CD137 NFkB-luciferase, HT1080-FAP co-culture” value [1] was 0.96, the “IC90; Jurkat-CD137 NFkB-luciferase, HT1080-FAP co-culture” value [1] was 60.8 and the “Total AUC; Jurkat-CD137 NFkB-luciferase” value [1] was 3.15e+07. For the same binder, the “Average EC50” value [2] was 0.17 nM, the “Average EC90” value [2] was 1.01 nM and the “Average IC50” value [2] was 362 nM. The “Average IC90” value [2] was 58.3 nM, the “Ratio IC50/EC50” value [2] was 2130 and the “Ratio IC90/EC90” value [2] was 57.6.

B3: CD137 #4 (B21.V25) + FAP #5 (C3 VK1/VH4) (bispecific antibody, human IgG1, kappa, L234A L235A)
heavy: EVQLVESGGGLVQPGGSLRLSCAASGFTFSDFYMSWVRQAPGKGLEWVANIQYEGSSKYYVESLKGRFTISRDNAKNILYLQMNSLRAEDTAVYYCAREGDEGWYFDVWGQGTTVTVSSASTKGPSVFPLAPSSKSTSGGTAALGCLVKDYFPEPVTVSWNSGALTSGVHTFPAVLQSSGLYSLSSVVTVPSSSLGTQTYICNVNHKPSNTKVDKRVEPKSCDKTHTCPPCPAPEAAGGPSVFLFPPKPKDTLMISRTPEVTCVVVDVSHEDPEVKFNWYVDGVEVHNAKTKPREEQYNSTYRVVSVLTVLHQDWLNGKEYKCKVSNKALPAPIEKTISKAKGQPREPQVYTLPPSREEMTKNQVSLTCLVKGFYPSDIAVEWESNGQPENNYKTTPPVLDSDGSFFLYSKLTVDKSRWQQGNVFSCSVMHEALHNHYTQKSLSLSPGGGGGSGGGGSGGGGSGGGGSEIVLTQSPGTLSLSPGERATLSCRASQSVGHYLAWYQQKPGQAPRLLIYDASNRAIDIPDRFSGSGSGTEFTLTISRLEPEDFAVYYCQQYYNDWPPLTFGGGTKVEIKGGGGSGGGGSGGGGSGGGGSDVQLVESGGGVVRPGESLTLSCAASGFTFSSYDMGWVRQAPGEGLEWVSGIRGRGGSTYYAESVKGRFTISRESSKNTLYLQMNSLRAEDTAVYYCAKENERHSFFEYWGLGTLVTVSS
light: DIQMTQSPSSLSASVGDRVTITCRASQSISTAVAWYQQKPGKAPKLLIYAASYLYSGVPSRFSGSGSGTDFTLTISSLQPEDFAVYYCQQHYSNPWTFGQGTKLEIKRTVAAPSVFIFPPSDEQLKSGTASVVCLLNNFYPREAKVQWKVDNALQSGNSQESVTEQDSKDSTYSLSSTLTLSKADYEKHKVYACEVTHQGLSSPVTKSFNRGEC
B3 was tested, and the “EC90; Jurkat-CD137 NFkB-luciferase, HT1080-FAP co-culture” value [1] was 1.38, the “IC90; Jurkat-CD137 NFkB-luciferase, HT1080-FAP co-culture” value [1] was 77.8 and the “Total AUC; Jurkat-CD137 NFkB-luciferase” value [1] was 3e+06. The “Average EC50” value [2] was 0.175 nM, the “Average EC90” value [2] was 1.25 nM and the “Average IC50” value [2] was 559 nM. The “Average IC90” value [2] was 98.6 nM, the “Ratio IC50/EC50” value [2] was 3190 and the “Ratio IC90/EC90” value [2] was 79.

B4: CD137 #2 (B21.V16) + FAP #5 (C3 VK1/VH4) (bispecific antibody, human IgG1, kappa, L234A L235A)
heavy: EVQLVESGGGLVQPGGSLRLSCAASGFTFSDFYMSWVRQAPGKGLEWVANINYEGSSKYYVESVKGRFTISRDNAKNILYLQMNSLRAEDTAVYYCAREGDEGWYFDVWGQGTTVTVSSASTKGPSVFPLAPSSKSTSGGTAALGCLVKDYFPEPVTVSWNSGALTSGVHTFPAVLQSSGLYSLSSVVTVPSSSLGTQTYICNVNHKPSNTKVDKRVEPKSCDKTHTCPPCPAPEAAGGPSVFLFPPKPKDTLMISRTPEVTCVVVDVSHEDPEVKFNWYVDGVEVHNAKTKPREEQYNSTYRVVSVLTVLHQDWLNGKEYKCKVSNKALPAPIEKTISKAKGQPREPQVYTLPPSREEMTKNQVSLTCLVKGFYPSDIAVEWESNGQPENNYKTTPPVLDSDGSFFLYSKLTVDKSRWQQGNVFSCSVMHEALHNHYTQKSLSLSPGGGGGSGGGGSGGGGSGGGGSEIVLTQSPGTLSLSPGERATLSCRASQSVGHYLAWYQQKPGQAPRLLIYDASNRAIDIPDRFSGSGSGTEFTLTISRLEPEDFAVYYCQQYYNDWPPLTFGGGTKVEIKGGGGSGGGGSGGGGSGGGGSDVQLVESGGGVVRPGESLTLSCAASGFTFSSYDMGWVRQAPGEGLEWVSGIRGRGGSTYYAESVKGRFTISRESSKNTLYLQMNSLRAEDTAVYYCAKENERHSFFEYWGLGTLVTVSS
light: DIQMTQSPSSLSASVGDRVTITCKASQDISSAVAWYQQKPGKAPKLLIYSASSRYTGVPSRFSGSGSGTDFTLTISSLQPEDFAVYYCQQHYSNPWTFGQGTKLEIKRTVAAPSVFIFPPSDEQLKSGTASVVCLLNNFYPREAKVQWKVDNALQSGNSQESVTEQDSKDSTYSLSSTLTLSKADYEKHKVYACEVTHQGLSSPVTKSFNRGEC
With B4 the “EC90; Jurkat-CD137 NFkB-luciferase, HT1080-FAP co-culture” value [1] was 0.87, the “IC90; Jurkat-CD137 NFkB-luciferase, HT1080-FAP co-culture” value [1] was 74.3 and the “Total AUC; Jurkat-CD137 NFkB-luciferase” value [1] was 3.6e+06. For the same binder, the “Average EC50” value [2] was 0.233 nM, the “Average EC90” value [2] was 2.23 nM and the “Average IC50” value [2] was 538 nM. The “Average IC90” value [2] was 110 nM, the “Ratio IC50/EC50” value [2] was 2300 and the “Ratio IC90/EC90” value [2] was 49.4.

B5: CD137 #A1 (antibody, human IgG1, V domains shown)
VH: QVQLVQSGAEVKKPGASVKVSCKASGYTLTNYPMHWVRQAPGQRPEWMGWSNAGNGNTKYSQEFQDRVTITRDTSASTAYMELSSLRSEDMAVYYCTREGVTGGFDIWGQGTMVTVSS
VL: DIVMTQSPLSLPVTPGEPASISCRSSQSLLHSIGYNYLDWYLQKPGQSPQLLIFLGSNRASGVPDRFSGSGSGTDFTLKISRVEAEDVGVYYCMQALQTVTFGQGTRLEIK
notes: human IgG1 KO (L234A/L235A)/kappa chimeric IgG
B5: binds [3].

B6: CD137 #A2 (antibody, human IgG1, V domains shown)
VH: QVQLVQSGADVKKPGASVRVSCKASGYTFTSYPIHWVRQAPGHRLEWMGWSNAGIGNAKYSQEFQGRVTITRDTSASTAYMDLSSLTSEDLAVYYCAREGVAGAFDIWGQGTMVTVSA
VL: DIVMTQSPLSLPVTPGEPASISCRSSQNLLHSNGYNYLDWYLHKPGQSPQLLIYLGSIRASGVPDRFSGSESGTDFTLKISRVEAEDVGIYYCMQPLQIPYTFGQGTKLELK
notes: as for B5
B6: binds [3].

B7: CD137 #A4 (antibody, human IgG1, V domains shown)
VH: DVQLQESGPGLVKPSQSLSLTCTVTGYSITSDYVWNWIRQFPGNKLEWMGYISYSGGTRYNPSLKSRISITRDTSENQFFLQLDSVTTEDTATFYCARSGNWDWYFDAWGTGTTVTVSS
VL: DIQMTQTTSSLSASLGDRVTISCRPSQDISNYLDWYQQKPDGTVKLLIYSTSRLPSGVPSRFSGSGSGTDYSLTISNMEQEDIATYFCQQGNTFPPTFGGGTKLEIK
notes: as for B5
B7: binds [3].

B8: CD137 #A12 (antibody, human IgG1, V domains shown)
VH: QVQLKQSGPGLVQPSQSLSITCTVSGFSLTSHGVHWVRQSPGKGLEWLGVIWSGGYTDYNAAFISRLSISTDNSKSHIFFKMNSLQADDTAIYYCARNGASYYYAMDYWGQGTSVTVSS
VL: DIVMTQAAFSNPVTLGISASISCRSSKSLLHSNGITYLYWYLQKPGQSPQLLIYQMSNLASGVPDRFSSSGSGTDFTLRISRVEAEDVGVYYCAQNLELPLTFGAGTKLELK
notes: human IgG1 KO (L234A/L235A)/kappa chimeric IgG; also called CD137 #Al2
B8: binds [3].

B9: CD137 #A30 (antibody, human IgG1, V domains shown)
VH: QVQLQQPGTEFVKPGASVKLSCKASDYTFTSHWMHWVKQRPGQGLEWIGEIDPSDSYTNYIQKFKGKATLTVDKSSSTAYMQLSSLTSEDSAVYYCARGDYYGTRYFDVWGAGTTVIVSS
VL: DIVMTQSPSSLSVSAGEKVTMSCKSGQNLFNSGNQKNYLAWYQQKPGQPPRLLIYGASTRESGVPDRFTGSGSGTDFTLTISSVQAEDLAVYYCQNDQSYPPTFGAGTKLELK
notes: as for B5
B9: binds [3].

B10: CD137 #A41 (antibody, human IgG1, V domains shown)
VH: QVQLQESGPGLVKPSETLSLNCTVSGGSISNYYWSWIRQPAGKGLEWIGRIYTSGNTNYNPSLKSRVTMSVDTSKNQFSLKLTSVTAADTAVYYCARDGNWNYADAFDIWGQGTMVTVSS
VL: DIQMTQSPSSVSASVGDRVTITCRASQGISSWLAWFQQIPGKAPKLLIYTASGLQSGVPSRFSGSGSGTDFTLTISSLQPEDFATYYCQQTNSFPFTFGPGTKVDIK
notes: as for B5
B10: binds [3].

B11: CD137 #A44 (antibody, V domains shown)
VH: QVQLVQSGAEVKKPGASVKVSCKASGYTFTNYPIHWVRQAPGQRLEWMGWSNAGNGNTKYSPEFQDRVTITRDTSASTVYMELSSLRSEDMSVYYCAREGVTGAFDIWGQGTMVTVSS
VL: not shown
notes: as for B5
B11: binds [3].

B12: CD137 #A45 (antibody, human IgG1, V domains shown)
VH: QVQLVQSGAEVKKPGASVKVSCKASGYIFTNYPMHWVRQAPGQRLEWMGWSNAGIGNTKYSQDFQGRVTITRDTSANTSYMELSSLRSEDMAVYYCAREGVTGAFDYWGQGTLVTVSS
VL: DIVMTQSPLSLPVTPGEPASISCRSSQSLLHSNGFNYLDWYLQKPGQSPQLLIFLGSIRASGVPDRFSGSESGTDFTLKISRVEADDVGIYYCMQPLQIPYTFGQGTKLEIK
notes: as for B5
B12: binds [3].

B13: CD137 #A46 (antibody, human IgG1, V domains shown)
VH: QVQLAQSGAEVKKPGASVKVSCKASGYTFSSFPMHWVRQAPGQRLEWMGWSNAGIGNTKYSQEFQGRVTITRDTSASTAYMELSSLRSEDMAVYYCAREGLTGAFDYWGQGTLVTVSS
VL: DIVMTQSPLSLPVTPGEPASISCRSSQSLLHSNGYNYLGWHLQKPGQSPQLLIYLGSYRASGVPDRFSGSGSGTDFTLKISRVEAEDVGVYYCMQPLQIPLTFGGGTKVEIK
notes: as for B5
B13: binds [3].

B14: CD137 #B3 (antibody, human IgG1, V domains shown)
VH: DVQLVESGGDLVQPGGSRKLSCAASGFTFSSFGMHWVRQAPERGLEWVAYISSGSSTIYYADTVKGRFIISRDNPKNTLFLQMTSLRSEDTAMYYCARDWVDYWGQGTSVTVSS
VL: QIVLTQSPAIMSASPGEKVTITCSASSSVNYIHWFQQKPGTSPKLWIYSTSNLASGVPARFSGRGSGTSYSLTISRMEAEDAATYYCLQGSSYPWTFGGGTKLEIK
notes: as for B5
B14: binds [3].

B15: CD137 #A57 (antibody, human IgG1, V domains shown)
VH: QVQLVQSGAEVKKPGASVKVSCKTSGYTFTSYPMHWVRQAPGQRLEWMGWSNAGNGNTKYSQEFQGRVTLTRDTSASTAFMELSSLRSEDMAVYYCAREGLTGAFDYWGQGTLVTVSS
VL: not shown
notes: as for B5
B15: binds [3].

B16: CD137 #B9 (antibody, human IgG1, V domains shown)
VH: QVQLVQSGAEVKKPGASVKVSCKASGYTLTNFPMHWVRQAPGQRLEWMGWTNAGNGNTKYSQELQGRVTMTRDTSASIAYMELSSLRSEDMGVYYCAREGLTGAFDYWGQGTLVTVSS
VL: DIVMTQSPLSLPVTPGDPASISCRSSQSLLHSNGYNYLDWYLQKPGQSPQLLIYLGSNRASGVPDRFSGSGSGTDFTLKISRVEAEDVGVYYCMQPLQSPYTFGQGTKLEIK
notes: as for B5
B16: binds [3].

B17: CD137 #B10 (antibody, human IgG1, V domains shown)
VH: QVQLVQSGAEVKKPGASVKVSCKASGYTFTNYPMHWVRQAPGQRLEWMGWSNAGSGNTKYSQDFQGRVSITRDTSASTAYMELSSLKSEDMAIYYCAREGVAGAFDIWGQGTVVTVSS
VL: DIVMTQSPLSLPVTPGEPASISCRSSQRLLHSNGFNYLGWYLQKPGQSPQLLIYLGSHRASGVPDRFSGSGSGTDFTLKISRVEAEDVGVYYCMQPLQIPYTFGQGTKLEIK
notes: as for B5
B17: binds [3].

B18: CD137 #B12 (antibody, human IgG1, V domains shown)
VH: QVQLVQSGAEVKKPGASVKVSCKASGYTFTTYPMHWVRQAPGQRLEWMGWSNAGIGNTKYSQEFQDRITISRDTSASTVYMELSSLRSEDMAVYYCAREGVAGGFDIWGQGTMVTVSS
VL: DIVMTQSPLSLPVTPGEPASISCRSSQSLLHSNGYNYLNWYLQKPGQSPQLLIYLGSIRASGVPDRFSGSESGTDFTLKISRVEAEDVGVYYCMQPLQIPYTFGQGTKLEIK
notes: as for B5
B18: binds [3].

B19: CD137 #B30 (antibody, human IgG1, V domains shown)
VH: QVQLQQSGPQLIRPGASVKISCKASGYSFTGYWIHWVKQRPGQGLEWIGMIDPSDSETRLNQKFKDKATLTVDKSSTTAYMQLSSPTSEDSAVFYCARYRNYGYDGFAHWGQGTLVTVSA
VL: DIVMTQSPSSLTVTAGEKVTMSCKSSQSLLNSGNEKNYLAWYQQKPGQPPKLLIYWASTRESGVPDRFTGSGSGTDFTLTISSVQTEDLAVYHCQNDYSLPLTFGAGTKLELK
notes: as for B5
B19: binds [3].
